# Experimental data taken from PMC9673926, “Nucleotide binding as an allosteric regulatory mechanism for Akkermansia muciniphila β-N-acetylhexosaminidase Am2136” (Gut Microbes, 2022).
# Key:
# Am2136 WT [1] = target: T1, Am2136 WT (Akkermansia muciniphila, UniProt B2UPR7); assay: Enzyme activity assay (pNP-β-GlcNAc hydrolysis) regulated by nucleotides; type: biochemical; settings: WT; 1 mM nucleotide; substrate pNP-β-GlcNAc; 37°C
# T1 construct: The coding region (residue Q20-L756) of Am2136 without signal peptide was based on UniProt; 6XHis (N); made in house; host or cells: E. coli BL21 (DE3)
# Am2136 WT [2] = target: T1, Am2136 WT; assay: Nucleotide binding affinity by intrinsic fluorescence; settings: Am2136 WT; fluorescence ex 286 nm/em 336 nm
# Description: The nucleotide binding ability was determined on Fluorescence Spectrometer Duetta (HORIBA) by measuring the change of peak intensity. The fluorescence was excited at 286 nm and emitted at 336 nm. And the measurement was processed under 400 V voltage with 2.5 nm excitation slit and 5 nm emission slit. […] The sample was incubated at 4°C for 5 min before testing.
# [3] = substrate: CC(=O)N[C@H]1[C@H](Oc2ccc([N+](=O)[O-])cc2)O[C@H](CO)[C@@H](O)[C@@H]1O; assay: Release of 4-nitrophenolate from pNP-β-GlcNAc (0.125-4 mM) followed at 405 nm for 5 min with 2 μM enzyme in 25 mM Tris pH 8.0, 150 mM NaCl at 37 °C, no nucleotide.; type: biochemical
# Text: All experiments were repeated three times.
# [4] = substrate: CC(=O)N[C@H]1[C@H](Oc2ccc([N+](=O)[O-])cc2)O[C@H](CO)[C@@H](O)[C@@H]1O; assay: purified protein, by the assay type; settings: pH 8.0
Molecule,Vmax (Am2136 WT [1]) [µmol/min],Kd (Am2136 WT [2]) [µM],Km [3] [µM],Vmax [3] [µmol/min],kcat/Km [3] [M⁻¹ s⁻¹],further results
Nc1ncnc2c1ncn2[C@@H]1O[C@H](COP(=O)(O)OP(=O)(O)O)[C@@H](O)[C@H]1O [ADP],422 ± 6,255 ± 4.98,–,–,–,–
Nc1ncnc2c1ncn2[C@@H]1O[C@H](COP(=O)(O)OP(=O)(O)OP(=O)(O)O)[C@@H](O)[C@H]1O [ATP],442 ± 9,245 ± 5.99,–,–,–,–
Nc1ccn([C@@H]2O[C@H](COP(=O)(O)OP(=O)(O)O)[C@@H](O)[C@H]2O)c(=O)n1 [CDP],435 ± 6,157 ± 3.89,–,–,–,–
Nc1ccn([C@@H]2O[C@H](COP(=O)(O)OP(=O)(O)OP(=O)(O)O)[C@@H](O)[C@H]2O)c(=O)n1 [CTP],436 ± 7,167 ± 5.91,–,–,–,–
Nc1nc2c(ncn2[C@@H]2O[C@H](COP(=O)(O)OP(=O)(O)OP(=O)(O)O)[C@@H](O)[C@H]2O)c(=O)[nH]1 [GTP],449 ± 7,123 ± 3.76,–,–,–,–
O=c1ccn([C@@H]2O[C@H](COP(=O)(O)OP(=O)(O)O)[C@@H](O)[C@H]2O)c(=O)[nH]1 [UDP],429 ± 9,179 ± 7.71,–,–,–,–
O=c1ccn([C@@H]2O[C@H](COP(=O)(O)OP(=O)(O)OP(=O)(O)O)[C@@H](O)[C@H]2O)c(=O)[nH]1 [UTP],439 ± 7,199 ± 3.66,–,–,–,–
"Δ D717-K727 (Akkermansia muciniphila ATCC BAA-835; DEL717-727) (protein, residues Q20-L756 without signal peptide, N-terminal 6xHis-tag; loop D717-K727 deleted) QDAKQIADSLSIPPVKAGAKQLPMPSVSGAQIKLLGADYEQLVNSKGKIAPVISDTPVNVSFKVTKDGKEAVSKDYEIMLQAPQAAQGNPKPRIIPEILQWKGGQGEYKLGNTVTIACPDKELGKLFAADMEDVLGKKVKLVAPGAKADISLSLLKGGNLGREGYRLQIARDGVRLGAAAPTGLFWGTRTLLQMLRQTPGSVPCGTAVDFPRYQLRGFMLDVARTPYPLSYLKDVIRTMAWYKMNDLHLVINNNYIFHEHYVDNGHDPFKESYAAFRLESKMKGKDGTPLTARDLFYTKKEFADLVSYARKYGVNIVPEFDTPGHALSFTRLRPDLIYKGPMNHEKRRCEMLDAANPETIDLVSKVFDEYMLKDPKLGRPVFADCGVVHVGADEFYGDKEDYRHFANAVLTHALKRGYTPRIWGSLSAKPGKTPVVSKGVQMNLWSTGWMKAWEAVNQGYDVINTNDGALYIVPFAGYYRMDRNHKGLYNNWIPNRIGNETLPSGHPQLLGGTFAVWNDETDIMHTGYAPYDIWGIISGSMDVLSQKLWGTAKAPDTFEQHRELVSSIGNAPRTNPLHKWKDSQPLTVKPSSLPQKLDKPALGPNYRLTMELELTAAPEGKEQVLLAAPEGELLAVMKDGTVGFRRDDSLEFSFGAKLPVGKKVKVEIVGEPEKTSLLLDGEPAGTAVLKNFSDKSKVHRSTFILPLKELGSSFQGKVFHMNVQPL",–,–,6560 ± 410,144,11000 ± 1000,–
Am2136 WT (Akkermansia muciniphila ATCC BAA-835) (protein) QDAKQIADSLSIPPVKAGAKQLPMPSVSGAQIKLLGADYEQLVNSKGKIAPVISDTPVNVSFKVTKDGKEAVSKDYEIMLQAPQAAQGNPKPRIIPEILQWKGGQGEYKLGNTVTIACPDKELGKLFAADMEDVLGKKVKLVAPGAKADISLSLLKGGNLGREGYRLQIARDGVRLGAAAPTGLFWGTRTLLQMLRQTPGSVPCGTAVDFPRYQLRGFMLDVARTPYPLSYLKDVIRTMAWYKMNDLHLVINNNYIFHEHYVDNGHDPFKESYAAFRLESKMKGKDGTPLTARDLFYTKKEFADLVSYARKYGVNIVPEFDTPGHALSFTRLRPDLIYKGPMNHEKRRCEMLDAANPETIDLVSKVFDEYMLKDPKLGRPVFADCGVVHVGADEFYGDKEDYRHFANAVLTHALKRGYTPRIWGSLSAKPGKTPVVSKGVQMNLWSTGWMKAWEAVNQGYDVINTNDGALYIVPFAGYYRMDRNHKGLYNNWIPNRIGNETLPSGHPQLLGGTFAVWNDETDIMHTGYAPYDIWGIISGSMDVLSQKLWGTAKAPDTFEQHRELVSSIGNAPRTNPLHKWKDSQPLTVKPSSLPQKLDKPALGPNYRLTMELELTAAPEGKEQVLLAAPEGELLAVMKDGTVGFRRDDSLEFSFGAKLPVGKKVKVEIVGEPEKTSLLLDGEPAGTAVLKNFSDKSKDFSDKFKHRPKVHRSTFILPLKELGSSFQGKVFHMNVQPL,–,–,–,–,–,Km [4]: 1530 ± 80 µM; Km ([4]; 37.0 °C): 1460 ± 50 µM
"T545A+G546A (Akkermansia muciniphila ATCC BAA-835; G546A/T545A) (protein, residues Q20-L756 without signal peptide, N-terminal 6xHis-tag) QDAKQIADSLSIPPVKAGAKQLPMPSVSGAQIKLLGADYEQLVNSKGKIAPVISDTPVNVSFKVTKDGKEAVSKDYEIMLQAPQAAQGNPKPRIIPEILQWKGGQGEYKLGNTVTIACPDKELGKLFAADMEDVLGKKVKLVAPGAKADISLSLLKGGNLGREGYRLQIARDGVRLGAAAPTGLFWGTRTLLQMLRQTPGSVPCGTAVDFPRYQLRGFMLDVARTPYPLSYLKDVIRTMAWYKMNDLHLVINNNYIFHEHYVDNGHDPFKESYAAFRLESKMKGKDGTPLTARDLFYTKKEFADLVSYARKYGVNIVPEFDTPGHALSFTRLRPDLIYKGPMNHEKRRCEMLDAANPETIDLVSKVFDEYMLKDPKLGRPVFADCGVVHVGADEFYGDKEDYRHFANAVLTHALKRGYTPRIWGSLSAKPGKTPVVSKGVQMNLWSTGWMKAWEAVNQGYDVINTNDGALYIVPFAGYYRMDRNHKGLYNNWIPNRIGNETLPSGHPQLLGGTFAVWNDETDIMHAAYAPYDIWGIISGSMDVLSQKLWGTAKAPDTFEQHRELVSSIGNAPRTNPLHKWKDSQPLTVKPSSLPQKLDKPALGPNYRLTMELELTAAPEGKEQVLLAAPEGELLAVMKDGTVGFRRDDSLEFSFGAKLPVGKKVKVEIVGEPEKTSLLLDGEPAGTAVLKNFSDKSKDFSDKFKHRPKVHRSTFILPLKELGSSFQGKVFHMNVQPL",–,–,3660 ± 690,264,36000 ± 5000,–
"D57A+E59A+Q60A (Akkermansia muciniphila ATCC BAA-835; D57A/E59A/Q60A) (protein, residues Q20-L756 without signal peptide, N-terminal 6xHis-tag) QDAKQIADSLSIPPVKAGAKQLPMPSVSGAQIKLLGAAYAALVNSKGKIAPVISDTPVNVSFKVTKDGKEAVSKDYEIMLQAPQAAQGNPKPRIIPEILQWKGGQGEYKLGNTVTIACPDKELGKLFAADMEDVLGKKVKLVAPGAKADISLSLLKGGNLGREGYRLQIARDGVRLGAAAPTGLFWGTRTLLQMLRQTPGSVPCGTAVDFPRYQLRGFMLDVARTPYPLSYLKDVIRTMAWYKMNDLHLVINNNYIFHEHYVDNGHDPFKESYAAFRLESKMKGKDGTPLTARDLFYTKKEFADLVSYARKYGVNIVPEFDTPGHALSFTRLRPDLIYKGPMNHEKRRCEMLDAANPETIDLVSKVFDEYMLKDPKLGRPVFADCGVVHVGADEFYGDKEDYRHFANAVLTHALKRGYTPRIWGSLSAKPGKTPVVSKGVQMNLWSTGWMKAWEAVNQGYDVINTNDGALYIVPFAGYYRMDRNHKGLYNNWIPNRIGNETLPSGHPQLLGGTFAVWNDETDIMHTGYAPYDIWGIISGSMDVLSQKLWGTAKAPDTFEQHRELVSSIGNAPRTNPLHKWKDSQPLTVKPSSLPQKLDKPALGPNYRLTMELELTAAPEGKEQVLLAAPEGELLAVMKDGTVGFRRDDSLEFSFGAKLPVGKKVKVEIVGEPEKTSLLLDGEPAGTAVLKNFSDKSKDFSDKFKHRPKVHRSTFILPLKELGSSFQGKVFHMNVQPL",–,–,1410 ± 60,432,153000 ± 3000,–
"Y415A (Akkermansia muciniphila ATCC BAA-835; Y415A) (protein, residues Q20-L756 without signal peptide, N-terminal 6xHis-tag) QDAKQIADSLSIPPVKAGAKQLPMPSVSGAQIKLLGADYEQLVNSKGKIAPVISDTPVNVSFKVTKDGKEAVSKDYEIMLQAPQAAQGNPKPRIIPEILQWKGGQGEYKLGNTVTIACPDKELGKLFAADMEDVLGKKVKLVAPGAKADISLSLLKGGNLGREGYRLQIARDGVRLGAAAPTGLFWGTRTLLQMLRQTPGSVPCGTAVDFPRYQLRGFMLDVARTPYPLSYLKDVIRTMAWYKMNDLHLVINNNYIFHEHYVDNGHDPFKESYAAFRLESKMKGKDGTPLTARDLFYTKKEFADLVSYARKYGVNIVPEFDTPGHALSFTRLRPDLIYKGPMNHEKRRCEMLDAANPETIDLVSKVFDEYMLKDPKLGRPVFADCGVVHVGADEFAGDKEDYRHFANAVLTHALKRGYTPRIWGSLSAKPGKTPVVSKGVQMNLWSTGWMKAWEAVNQGYDVINTNDGALYIVPFAGYYRMDRNHKGLYNNWIPNRIGNETLPSGHPQLLGGTFAVWNDETDIMHTGYAPYDIWGIISGSMDVLSQKLWGTAKAPDTFEQHRELVSSIGNAPRTNPLHKWKDSQPLTVKPSSLPQKLDKPALGPNYRLTMELELTAAPEGKEQVLLAAPEGELLAVMKDGTVGFRRDDSLEFSFGAKLPVGKKVKVEIVGEPEKTSLLLDGEPAGTAVLKNFSDKSKDFSDKFKHRPKVHRSTFILPLKELGSSFQGKVFHMNVQPL",–,–,2320 ± 80,399,86000 ± 1000,–
Y550A (Akkermansia muciniphila ATCC BAA-835; Y550A) (protein) QDAKQIADSLSIPPVKAGAKQLPMPSVSGAQIKLLGADYEQLVNSKGKIAPVISDTPVNVSFKVTKDGKEAVSKDYEIMLQAPQAAQGNPKPRIIPEILQWKGGQGEYKLGNTVTIACPDKELGKLFAADMEDVLGKKVKLVAPGAKADISLSLLKGGNLGREGYRLQIARDGVRLGAAAPTGLFWGTRTLLQMLRQTPGSVPCGTAVDFPRYQLRGFMLDVARTPYPLSYLKDVIRTMAWYKMNDLHLVINNNYIFHEHYVDNGHDPFKESYAAFRLESKMKGKDGTPLTARDLFYTKKEFADLVSYARKYGVNIVPEFDTPGHALSFTRLRPDLIYKGPMNHEKRRCEMLDAANPETIDLVSKVFDEYMLKDPKLGRPVFADCGVVHVGADEFYGDKEDYRHFANAVLTHALKRGYTPRIWGSLSAKPGKTPVVSKGVQMNLWSTGWMKAWEAVNQGYDVINTNDGALYIVPFAGYYRMDRNHKGLYNNWIPNRIGNETLPSGHPQLLGGTFAVWNDETDIMHTGYAPADIWGIISGSMDVLSQKLWGTAKAPDTFEQHRELVSSIGNAPRTNPLHKWKDSQPLTVKPSSLPQKLDKPALGPNYRLTMELELTAAPEGKEQVLLAAPEGELLAVMKDGTVGFRRDDSLEFSFGAKLPVGKKVKVEIVGEPEKTSLLLDGEPAGTAVLKNFSDKSKDFSDKFKHRPKVHRSTFILPLKELGSSFQGKVFHMNVQPL,–,–,–,–,–,Km ([4]; 37.0 °C): 1520 ± 40 µM
